# Measured values reported in the RNAGym collection of RNA variant scans (doi:10.7554/elife.80360).
# B1: Twister Ribozyme (parent)
# chain: AACACUGCCAAUGCCGGUCCCAAGCCCGGAUAAAAGUGGAGGGGGCGG
# Variants of: B1
# Assay: self-cleavage, relative activity (ratio to wild type); higher = more cleavage; co-transcriptional
row,Variant,self-cleavage
1,A35C G41C,0.245
2,A35C G41U,0.709
3,A33C G47C,0.274
4,A32U C46U,1.02
5,A32U A33C,0.895
6,A32U A33U,0.938
7,A33G C46A,0.894
8,A33G C46U,0.851
9,A33U G36C,0.174
10,A34G G38C,0.632
11,A34G G38A,0.629
12,A30U G48U,1.09
13,A30U G48A,1
14,A32U A34C,0.231
15,U31C A35C,1.03
16,U31C A35G,0.682
17,U31C G42U,0.407
18,A32U G36U,0.148
19,A32U G36C,0.435
20,U31C A40C,0.249
21,U31C A40G,0.0669
22,A34U G42A,0.169
23,A34U G42C,0.217
24,A34U G42U,0.145

row,Variant,self-cleavage
1,U31C G44A,1.1
2,U31C G44C,0.976
3,U31A C46G,0.763
4,U31A C46U,0.582
5,U31G A34G,0.894
6,U31G A34U,0.904
7,U31G G41A,0.574
8,U31G G48A,0.992
9,U31G G48U,0.938
10,U31C G47A,0.926
11,U31G A35U,1.01
12,U31G A40U,0.199
13,A33G A34U,0.461
14,A33G A34C,0.108
15,A33G A34G,0.253
16,U31G,0.933
17,U31A,0.751
18,U31C,1.01
19,A30U A34U,0.85
20,A35C G44A,0.87
21,A35C G44U,0.976
22,A33G G45U,0.782
23,A33G G45A,0.803
24,A32C U37C,0.494

row,Variant,self-cleavage
1,A32C U37A,0.732
2,A33U U37C,0.379
3,A32C A40C,0.159
4,A32C G44C,1.03
5,A32C G44U,0.936
6,A32C G44A,0.881
7,A33G G36C,0.303
8,A33G U37C,0.532
9,A33G U37A,0.814
10,A34G A40C,0.198
11,A34G G43C,0.162
12,A34G G43U,0.133
13,A34G G43A,0.136
14,A32U G45A,0.823
15,A32U G45C,0.506
16,A34C G48A,0.187
17,A33U G42C,0.323
18,A33U G42U,0.244
19,A33U G42A,0.283
20,A33U G39U,0.162
21,A33U G39C,0.0973
22,A33U G39A,0.512
23,U31C G38C,0.842
24,A32U G43C,0.139

row,Variant,self-cleavage
1,A33C G38C,0.918
2,A32C G39C,0.079
3,A32C G39A,0.586
4,A32C G39U,0.235
5,A34C G39C,0.0839
6,A34C G39A,0.155
7,A30U G39C,0.185
8,A30U G39A,0.614
9,A30U G39U,0.212
10,A35G A40C,0.142
11,A33C G36C,0.101
12,A33C G36U,0.122
13,U31C G45A,0.965
14,A30U G43A,0.278
15,A34G G44A,0.809
16,A32G G38A,0.846
17,A32G G38C,0.892
18,A35C G38C,0.921
19,A32C G42U,0.266
20,A32C G47C,0.556
21,A32C G47A,0.764
22,A32C G47U,0.783
23,U31A G39U,0.168
24,U31A G38A,0.509

row,Variant,self-cleavage
1,U31A G38U,0.692
2,U31A G38C,0.801
3,A35C G36C,0.382
4,A32U G44A,0.919
5,A32U G44U,0.885
6,A32G G43C,0.0899
7,A32G A35C,0.914
8,A30U G41C,0.286
9,A30U G41U,0.712
10,A34U U37A,0.368
11,A34U U37C,0.155
12,A33G G38U,0.861
13,U31G G43C,0.18
14,U31G G43U,0.467
15,A35G G44A,0.808
16,A35G G44C,0.821
17,A34U A40G,0.122
18,A34U A40C,0.137
19,A34U A40U,0.141
20,A35G G41C,0.143
21,A35G G41U,0.283
22,U31C G48U,1.11
23,A34U G44U,0.771
24,A32G A40G,0.147

row,Variant,self-cleavage
1,U31C A33C,0.925
2,A34U A35G,0.191
3,U31G G42A,0.497
4,U31G G42C,0.699
5,A33C,0.975
6,A33G,0.96
7,A33U,0.998
8,U31G G44A,0.825
9,U31G G44C,0.974
10,A30U G44A,0.971
11,A30U G44C,0.963
12,A35G G38C,0.632
13,A34U G36U,0.124
14,A34U G36C,0.132
15,A32C A35C,0.911
16,A32C A35U,1.05
17,A32G G42U,0.357
18,A32G G42C,0.38
19,A32G G42A,0.319
20,A33C C46A,0.934
21,A33C C46G,0.751
22,A33C C46U,0.961
23,A33G G42U,0.17
24,A33G G42C,0.268

row,Variant,self-cleavage
1,U31C G39C,0.111
2,U31C G39A,0.456
3,U31G G45C,0.653
4,U31G G45U,0.883
5,A33U G48U,0.931
6,A34C G38U,0.138
7,A33U G47C,0.439
8,A33U G38C,0.77
9,A33U G38A,0.946
10,A32G G44A,0.929
11,A32G G44C,0.907
12,A34G C46G,0.815
13,U31A A34U,1.07
14,U31A A34G,0.853
15,A34C A35C,0.694
16,A34G G41C,0.12
17,A34G A35C,0.742
18,A30U U37G,0.912
19,A34C G41A,0.133
20,U31G G38C,0.894
21,U31C A32U,1.02
22,U31C A34G,0.664
23,A30U C46G,0.931
